According to US7229788B1, “Protease susceptibility II” (The University of Sydney, priority 1998, dated 2007):

Tests used:
Type in all cases: biochemical
[1] = biological target: T1, human thrombin (Homo sapiens, UniProt P00734); test: Thrombin digestion of SHEL, SDS-PAGE; conditions: for protection from degradation by thrombin in the coacervated state: coacervated at 37° C., 150 mM NaCl
T1 construct: purchased Sigma
Protocol: (§1) A range of enzyme concentrations was originally used to determine the optimal amount for subsequent experiments. Thrombin (0.01–1U), human plasma kallikrein (3×10^−4 to 3×10^−3U), human plasmin (7×10^−5 to 4×10^−7U), bovine trypsin (5×10^−4 to 4×10^−3U), and human leukocyte elastase (1.6×10^−4 to 3.2×10^−3U) were added to 10 μg SHEL or SHELδ26A in 50 mM sodium phosphate buffer pH 7.8 in a total volume of 20 μl. All reactions were performed at 37° C. for one hour. Gelatinase A and B were activated using 0.8 mM APMA at 37° C. for 30 minutes (gelatinase A) or 37° C. for 45 minutes (gelatinase B). Gelatinase A (4×10^−3−4×10^−2) and gelatinase B (2×10^−5−1×10^−4) was added to […] SHEL or SHELd26A in a total volume of […]. Gelatinase B reactions were performed in the presence of 0.75 mM APMA. The degradation profile was analysed by 8, 10 or 12% SDS-PAGE.
(§2) Both SHEL and SHELδ26A were used. Each reaction was analysed by 10% SDS-PAGE.
(§3) Extent of proteolysis was monitored by SDS-PAGE.
Cleavage of GST-SHEL bound to glutathione agarose was performed by washing and resuspending beads in 1× thrombin cleavage buffer (50 mM Tris-HCl pH8.0, 150 mM NaCl, 2.5 mM CaCl2) and adding human thrombin (Sigma) from 0.1 to 1% (w/v) thrombin:fusion protein at 25° C. for one hour (Smith and Johnston 1988). Soluble bacterial lysates used as substrate were incubated similarly with 1× thrombin cleavage buffer, added from a 10× stock. GST (26 kDa) was evident on beads by SDS-PAGE but SHEL could not be identified in the supernatant in numerous experiments. To determine whether thrombin was degrading SHEL, the entire cell lysate was subject to cleavage with increasing concentrations of thrombin. […] GST was clearly present. However, with 0.01U thrombin a band at approximately 64 kDa could be discerned which may represent SHEL although this was not nearly as intense as the GST band.

[2] = biological target: T2, human plasma kallikrein (Homo sapiens, UniProt P03952); test: Kallikrein digestion of SHEL, SDS-PAGE; conditions: for degradation by human plasma kallikrein: 50 mM sodium phosphate pH 7.8, 37° C.; for protection from degradation by kallikrein in the coacervated state: coacervated at 37° C., 150 mM NaCl
T2 construct: purchased Sigma
Protocol: as §1, §2, §3

[3] = biological target: T3, human plasmin (Homo sapiens, UniProt P00747); test: Plasmin digestion of SHEL, SDS-PAGE; conditions: for protection from degradation by plasmin in the coacervated state: coacervated at 37° C., 150 mM NaCl
T3 construct: purchased Sigma
Protocol: as §1, §2, §3

[4] = tested on: protease; test: Protease resistance of SHELδ26A compared with SHEL
Protocol: as §1

[5] = biological target: T4, bovine trypsin (Bos taurus, UniProt P00760); test: Trypsin digestion of SHEL, SDS-PAGE
T4 construct: purchased Boehringer-Mannheim
T4 sequence (P00760 24-246): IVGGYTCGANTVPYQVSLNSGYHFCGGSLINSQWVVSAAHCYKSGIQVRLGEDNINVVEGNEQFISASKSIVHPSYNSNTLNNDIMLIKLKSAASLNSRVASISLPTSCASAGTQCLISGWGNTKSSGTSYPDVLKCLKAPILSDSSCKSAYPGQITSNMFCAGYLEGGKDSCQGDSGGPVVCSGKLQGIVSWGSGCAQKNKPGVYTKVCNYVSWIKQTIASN
Protocol: as §1, §2, §3

[6] = biological target: T5, human leukocyte elastase (HLE) (Homo sapiens, UniProt P08246); test: HLE digestion of SHEL, SDS-PAGE
T5 construct: purchased Sigma
T5 sequence (P08246 30-267): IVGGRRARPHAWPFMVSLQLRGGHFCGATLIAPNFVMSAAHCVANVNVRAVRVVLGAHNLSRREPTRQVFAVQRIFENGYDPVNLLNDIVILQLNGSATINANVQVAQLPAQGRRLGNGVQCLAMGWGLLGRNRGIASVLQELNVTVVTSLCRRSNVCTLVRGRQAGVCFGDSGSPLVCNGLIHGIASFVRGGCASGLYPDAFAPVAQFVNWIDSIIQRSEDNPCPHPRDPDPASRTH
Protocol: as §1, §2, §3

[7] = biological target: T6, Gelatinase A (72 kDa gelatinase) (Homo sapiens, UniProt P08253); test: Gelatinase A digestion of SHEL; conditions: SDS-PAGE and zymogram analysis
T6 construct: purchased Boehringer Mannheim Roche Diagnostics
T6 sequence (P08253 110-660): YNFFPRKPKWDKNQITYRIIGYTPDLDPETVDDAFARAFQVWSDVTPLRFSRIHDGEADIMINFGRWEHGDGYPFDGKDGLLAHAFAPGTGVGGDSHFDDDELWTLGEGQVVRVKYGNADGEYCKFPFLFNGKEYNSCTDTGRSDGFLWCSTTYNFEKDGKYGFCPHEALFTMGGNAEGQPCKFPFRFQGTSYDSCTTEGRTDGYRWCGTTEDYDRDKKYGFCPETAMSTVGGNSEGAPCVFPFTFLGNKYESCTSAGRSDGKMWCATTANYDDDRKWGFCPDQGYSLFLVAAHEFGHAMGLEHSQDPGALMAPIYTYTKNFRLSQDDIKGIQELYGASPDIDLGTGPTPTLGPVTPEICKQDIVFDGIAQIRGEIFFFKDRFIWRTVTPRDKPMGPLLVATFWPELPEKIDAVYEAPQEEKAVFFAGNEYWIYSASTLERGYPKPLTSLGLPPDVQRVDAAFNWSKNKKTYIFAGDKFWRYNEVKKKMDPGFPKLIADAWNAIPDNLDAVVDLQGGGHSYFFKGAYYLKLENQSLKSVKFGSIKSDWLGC
Protocol: as §1

[8] = biological target: T7, gelatinase B (92 kDa gelatinase) (Homo sapiens, UniProt P14780); test: Gelatinase B digestion of SHEL; conditions: SDS-PAGE and zymogram analysis
T7 construct: purchased Boehringer Mannheim Roche Diagnostics
Protocol: as §1

[9] = 50 mM sodium phosphate pH 7.8, 37° C.
[10] = coacervated at 37° C., 150 mM NaCl

T3 sequence (P00747 97-810): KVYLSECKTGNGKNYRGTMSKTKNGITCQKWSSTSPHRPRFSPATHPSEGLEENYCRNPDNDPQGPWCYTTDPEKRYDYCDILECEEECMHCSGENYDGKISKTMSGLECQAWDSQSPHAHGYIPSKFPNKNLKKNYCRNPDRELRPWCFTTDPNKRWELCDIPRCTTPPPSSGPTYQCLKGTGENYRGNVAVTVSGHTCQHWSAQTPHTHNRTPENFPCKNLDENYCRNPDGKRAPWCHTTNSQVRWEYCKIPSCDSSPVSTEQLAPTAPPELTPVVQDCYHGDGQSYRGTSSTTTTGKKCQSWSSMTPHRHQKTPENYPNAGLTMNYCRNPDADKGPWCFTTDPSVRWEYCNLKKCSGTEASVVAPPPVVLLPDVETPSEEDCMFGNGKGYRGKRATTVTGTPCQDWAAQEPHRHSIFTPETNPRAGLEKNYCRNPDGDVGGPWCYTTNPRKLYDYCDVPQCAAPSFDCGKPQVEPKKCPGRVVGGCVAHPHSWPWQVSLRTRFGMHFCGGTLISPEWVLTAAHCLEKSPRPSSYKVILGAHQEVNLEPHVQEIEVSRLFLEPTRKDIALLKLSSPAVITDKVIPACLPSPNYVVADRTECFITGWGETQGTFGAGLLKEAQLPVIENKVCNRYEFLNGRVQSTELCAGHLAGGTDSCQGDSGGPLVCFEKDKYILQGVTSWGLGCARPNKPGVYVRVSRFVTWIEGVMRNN
T2 sequence (P03952 20-638): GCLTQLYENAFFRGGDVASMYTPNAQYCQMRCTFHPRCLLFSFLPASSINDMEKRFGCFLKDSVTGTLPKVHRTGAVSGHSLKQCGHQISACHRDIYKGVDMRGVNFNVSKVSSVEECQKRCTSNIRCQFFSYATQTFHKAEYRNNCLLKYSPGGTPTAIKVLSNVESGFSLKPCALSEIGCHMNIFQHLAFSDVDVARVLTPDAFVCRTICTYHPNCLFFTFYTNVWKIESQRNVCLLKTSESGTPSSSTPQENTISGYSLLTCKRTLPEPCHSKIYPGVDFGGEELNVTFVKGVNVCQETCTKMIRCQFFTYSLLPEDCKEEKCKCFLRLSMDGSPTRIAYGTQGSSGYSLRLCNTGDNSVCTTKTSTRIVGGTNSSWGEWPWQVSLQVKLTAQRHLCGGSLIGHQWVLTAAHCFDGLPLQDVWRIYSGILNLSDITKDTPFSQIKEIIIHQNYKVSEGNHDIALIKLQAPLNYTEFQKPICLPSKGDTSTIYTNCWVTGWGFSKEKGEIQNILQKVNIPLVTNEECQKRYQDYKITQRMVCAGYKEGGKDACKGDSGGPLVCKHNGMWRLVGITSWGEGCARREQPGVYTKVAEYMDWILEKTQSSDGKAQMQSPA
T7 sequence (P14780 107-707 limits assumed, species assumed): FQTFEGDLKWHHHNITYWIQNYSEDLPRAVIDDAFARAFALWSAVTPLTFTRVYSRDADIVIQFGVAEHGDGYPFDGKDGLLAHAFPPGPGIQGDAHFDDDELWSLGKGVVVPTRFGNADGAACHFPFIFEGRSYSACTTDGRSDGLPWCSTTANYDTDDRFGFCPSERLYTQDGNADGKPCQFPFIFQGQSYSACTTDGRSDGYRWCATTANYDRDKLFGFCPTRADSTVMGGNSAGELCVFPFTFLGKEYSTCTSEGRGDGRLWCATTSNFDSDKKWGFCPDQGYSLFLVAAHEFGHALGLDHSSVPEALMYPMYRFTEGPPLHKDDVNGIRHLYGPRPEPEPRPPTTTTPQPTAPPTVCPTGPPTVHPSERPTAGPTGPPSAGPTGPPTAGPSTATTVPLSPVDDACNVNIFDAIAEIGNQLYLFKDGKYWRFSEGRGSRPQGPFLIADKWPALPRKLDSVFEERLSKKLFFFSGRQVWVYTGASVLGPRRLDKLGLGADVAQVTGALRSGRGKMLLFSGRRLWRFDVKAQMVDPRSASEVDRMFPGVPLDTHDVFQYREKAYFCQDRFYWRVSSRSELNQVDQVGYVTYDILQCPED

Row | Molecule | protection from degradation by thrombin in the coacervated state [1] | degradation by human plasma kallikrein [2] | protection from degradation by kallikrein in the coacervated state [2] | protection from degradation by plasmin in the coacervated state [3] | protease resistance relative to SHEL [4] | cleavage of fusion protein by thrombin ([1]; thrombin cleavage buffer, 25° C., one hour) | degradation by thrombin ([1]; 50 mM sodium phosphate pH 7.8, 37° C., one hour) | degradation by bovine trypsin [5, 9] | protection from degradation by trypsin in the coacervated state [5, 10] | degradation by human plasmin [3, 9] | degradation by human leukocyte elastase [6, 9] | protection from degradation by HLE in the coacervated state [6, 10] | digestion by gelatinase A [7] | digestion by gelatinase B [8]
1 | SHELδ26A: derived from SHEL by removing sequence corresponding to exon 26A; SEQ ID NO:5; reduced tropoelastin derivative (protein, listed as Homo sapiens) GGVPGAIPGGVPGGVFYPGAGLGALGGGALGPGGKPLKPVPGGLAGAGLGAGLGAFPAVTFPGALVPGGVADAAAAYKAAKAGAGLGGVPGVGGLGVSAGAVVPQPGAGVKPGKVPGVGLPGVYPGGVLPGARFPGVGVLPGVPTGAGVKPKAPGVGGAFAGIPGVGPFGGPQPGVPLGYPIKAPKLPGGYGLPYTTGKLPYGYGPGGVAGAAGKAGYPTGTGVGPQAAAAAAAKAAAKFGAGAAGVLPGVGGAGVPGVPGAIPGIGGIAGVGTPAAAAAAAAAAKAAKYGAAAGLVPGGPGFGPGVVGVPGAGVPGVGVPGAGIPVVPGAGIPGAAVPGVVSPEAAAKAAAKAAKYGARPGVGVGGIPTYGVGAGGFPGFGVGVGGIPGVAGVPSVGGVPGVGGVPGVGISPEAQAAAAAKAAKYGVGTPAAAAAKAAAKAAQFGLVPGVGVAPGVGVAPGVGVAPGVGLAPGVGVAPGVGVAPGVGVAPGIGPGGVAAAAKSAAKVAAKAQLRAAAGLGAGIPGLGVGVGVPGLGVGAGVPGLGVGAGVPGFGAVPGALAAAKAAKYGAAVPGVLGGLGALGGVGIPGGVVGAGPAAAAAAAKAAAKAAQFGLVGAAGLGGLGVGGLGVPGVGGLGGIPPAAAAKAAKYGAAGLGGVLGGAGQFPLGGVAARPGFGLSPIFPGGACLGKACGRKRK | significant protection from proteolysis | highly specific and limited proteolysis | significant protection from proteolysis | No protection was seen | higher protease resistance than SHEL | – | – | – | – | – | – | – | – | –
2 | GST-SHEL: fusion of glutathione S-transferase (GST) with SHEL (protein, left off: a dimerising Fc or GST) GGVPGAIPGGVPGGVFYPGAGLGALGGGALGPGGKPLKPVPGGLAGAGLGAGLGAFPAVTFPGALVPGGVADAAAAYKAAKAGAGLGGVPGVGGLGVSAGAVVPQPGAGVKPGKVPGVGLPGVYPGGVLPGARFPGVGVLPGVPTGAGVKPKAPGVGGAFAGIPGVGPFGGPQPGVPLGYPIKAPKLPGGYGLPYTTGKLPYGYGPGGVAGAAGKAGYPTGTGVGPQAAAAAAAKAAAKFGAGAAGVLPGVGGAGVPGVPGAIPGIGGIAGVGTPAAAAAAAAAAKAAKYGAAAGLVPGGPGFGPGVVGVPGAGVPGVGVPGAGIPVVPGAGIPGAAVPGVVSPEAAAKAAAKAAKYGARPGVGVGGIPTYGVGAGGFPGFGVGVGGIPGVAGVPSVGGVPGVGGVPGVGISPEAQAAAAAKAAKYGVGTPAAAAAKAAAKAAQFGLVPGVGVAPGVGVAPGVGVAPGVGLAPGVGVAPGVGVAPGVGVAPGIGPGGVAAAAKSAAKVAAKAQLRAAAGLGAGIPGLGVGVGVPGLGVGAGVPGLGVGAGVPGFGAGADEGVRRSLSPELREGDPSSSQHLPSTPSSPRVPGALAAAKAAKYGAAVPGVLGGLGALGGVGIPGGVVGAGPAAAAAAAKAAAKAAQFGLVGAAGLGGLGVGGLGVPGVGGLGGIPPAAAAKAAKYGAAGLGGVLGGAGQFPLGGVAARPGFGLSPIFPGGACLGKACGRKRK | – | – | – | – | – | extensively and in a reproducible manner | – | – | – | – | – | – | – | –
3 | SHEL: recombinant human tropoelastin splice form, amino acid sequence SEQ ID NO:4, obtained by the method of WO94/14958 (protein, listed as Homo sapiens) GGVPGAIPGGVPGGVFYPGAGLGALGGGALGPGGKPLKPVPGGLAGAGLGAGLGAFPAVTFPGALVPGGVADAAAAYKAAKAGAGLGGVPGVGGLGVSAGAVVPQPGAGVKPGKVPGVGLPGVYPGGVLPGARFPGVGVLPGVPTGAGVKPKAPGVGGAFAGIPGVGPFGGPQPGVPLGYPIKAPKLPGGYGLPYTTGKLPYGYGPGGVAGAAGKAGYPTGTGVGPQAAAAAAAKAAAKFGAGAAGVLPGVGGAGVPGVPGAIPGIGGIAGVGTPAAAAAAAAAAKAAKYGAAAGLVPGGPGFGPGVVGVPGAGVPGVGVPGAGIPVVPGAGIPGAAVPGVVSPEAAAKAAAKAAKYGARPGVGVGGIPTYGVGAGGFPGFGVGVGGIPGVAGVPSVGGVPGVGGVPGVGISPEAQAAAAAKAAKYGVGTPAAAAAKAAAKAAQFGLVPGVGVAPGVGVAPGVGVAPGVGLAPGVGVAPGVGVAPGVGVAPGIGPGGVAAAAKSAAKVAAKAQLRAAAGLGAGIPGLGVGVGVPGLGVGAGVPGLGVGAGVPGFGAGADEGVRRSLSPELREGDPSSSQHLPSTPSSPRVPGALAAAKAAKYGAAVPGVLGGLGALGGVGIPGGVVGAGPAAAAAAAKAAAKAAQFGLVGAAGLGGLGVGGLGVPGVGGLGGIPPAAAAKAAKYGAAGLGGVLGGAGQFPLGGVAARPGFGLSPIFPGGACLGKACGRKRK | significantly protected from degradation | specific and reproducible degradation | significantly protected from degradation | not by plasmin | – | – | easily degraded | complete degradation with prolonged treatment | some inhibition | at high concentration extensive degradation occurred | extensive degradation if left for extended period | some inhibition | digested | digested
